Laboratory results: patent publication US20230087785A1, “Leucine-Rich Repeat Kinase 2 Allosteric Modulators” (VIB VZW, priority 2020, published 2023)
One block for each binder: values may come before it.

Assays:
Assay in all cases: ELISA, antigen coated on the plate, purified Nb detected via its EPEA tag
[1] = biological target: T1, LRRK2 RocCOR domain construct (human, UniProt Q5S007 1334-1840)
T1 construct: A second construct (residues 1293-1840, N-terminal His6-MBP) was used in certain screening experiments; not shown: N-terminal Twin-Strep-tag; C-terminal His10-tag
T1 sequence: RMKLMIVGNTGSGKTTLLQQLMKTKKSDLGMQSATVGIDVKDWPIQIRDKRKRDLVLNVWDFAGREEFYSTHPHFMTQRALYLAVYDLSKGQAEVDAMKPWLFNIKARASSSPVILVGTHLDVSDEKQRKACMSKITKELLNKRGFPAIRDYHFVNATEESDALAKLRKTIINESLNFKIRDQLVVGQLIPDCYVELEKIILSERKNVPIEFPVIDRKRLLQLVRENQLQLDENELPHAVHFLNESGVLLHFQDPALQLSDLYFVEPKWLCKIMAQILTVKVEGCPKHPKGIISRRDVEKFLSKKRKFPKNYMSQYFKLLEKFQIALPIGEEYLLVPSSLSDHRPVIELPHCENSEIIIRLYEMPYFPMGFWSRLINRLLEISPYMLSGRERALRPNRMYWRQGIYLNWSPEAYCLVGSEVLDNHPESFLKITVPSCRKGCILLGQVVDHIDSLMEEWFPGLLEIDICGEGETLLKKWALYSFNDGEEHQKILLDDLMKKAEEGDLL
From the text: (§1) We recombinantly expressed and purified the RocCOR, Roc, COR-B and kinase-WD40 (K-WD40) domain constructs of LRRK2 (FIG. 7). Subsequently, we performed an ELISA in which all these domain constructs were coated in parallel next to each other in the same ELISA plate, and where we subsequently detected binding of the 42 purified Nbs. […] To enrich in Nbs directed against the Roc domain we specifically included a selection step with either Roc-GTPγS or Roc-GDP.

[2] = biological target: T2, LRRK2 COR-B construct (C-terminal part of the COR domain), His6-MBP tagged (human, UniProt Q5S007 1672-1840)
T2 construct: also called (MBP-)COR-B; not shown: N-terminal His6-MBP-tag of pDEST-566
From the text: as §1

[3] = biological target: T3, LRRK2 Roc domain construct (human, UniProt Q5S007 1329-1520)
T3 construct: not shown: N-terminal His6-tag of pET-28a
T3 sequence: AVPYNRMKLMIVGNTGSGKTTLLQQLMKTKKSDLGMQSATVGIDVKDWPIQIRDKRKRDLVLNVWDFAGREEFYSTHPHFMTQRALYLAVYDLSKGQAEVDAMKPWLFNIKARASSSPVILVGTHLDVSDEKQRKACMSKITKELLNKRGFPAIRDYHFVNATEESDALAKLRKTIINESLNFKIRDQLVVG
From the text: as §1

- binding result [1]: no binding (tested: not given)
- binding result [2]: no binding (tested: not given)
- binding result [3]: no binding (tested: not given)
B1: Nb10 (CA13599) (VHH)
VHH: QVQLVESGGGLVQPGGSLRLSCAASGSIFSIYAMGWYRQAPGKQRELVAAITSGGDTNYADSVKGRFTISRDNAKNTVYLQMNSLKPEDTAVYYCNADHTPAGTFQTFDYWGQGTQVTVSS

- binding result [1]: no binding (tested: not given)
- binding result [2]: no binding (tested: not given)
- binding result [3]: no binding (tested: not given)
B2: Nb28 (CA13617) (VHH)
VHH: QVQLVESGGGLVQAGGSLRLSCAASGIIFHWYDMDWYRQAPGKQRELVATITTGGRADYADFVKGRFSISRDNAKTTVYLQMNSLKPEDTAVYYCSFQDHVLRRWGQGTQVTVSS

- binding result [1]: no binding (tested: not given)
- binding result [2]: no binding (tested: not given)
- binding result [3]: no binding (tested: not given)
B3: Nb13 (CA13602) (VHH)
VHH: QVQLVESGGGLVQPGGSLRLSCAASGSGFSIYAMGWARQAPGRQRELVAAITSGGSTNYADSVKGRFTISRDNAKNTVYLQMNSLKPEDTAVYYCNADITVVAGSTYDYWGQGTQVTVSS

- binding result [1]: no binding (tested: not given)
- binding result [2]: no binding (tested: not given)
- binding result [3]: no binding (tested: not given)
B4: Nb9 (CA13598) (VHH)
VHH: QVQLVESGGGLVQPGGSLRLSCAASGSIFSINAMGWYRQAPGKQRELVAAITSGGRTNYADSVRGRFTISRDHAKNTVYLQMNSLKPEDTAVYYCNAGDWQTMYDYWGQGTQVTVSS

- binding result [1]: no binding (tested: not given)
- binding result [2]: no binding (tested: not given)
- binding result [3]: no binding (tested: not given)
B5: Nb41 (CA14136) (VHH)
VHH: QVQLVESGGGLVQAGGSLRLSCEASVRTFSFYSMGWFRQAPGKEREFVAAIRWTAGSTSYADIVKGRFTISRDNGKNTVVLQMNSLEPEDTGVYYCAAQRGYLVEAASREYDYWGQGTQVTVSS
